This assay deals with PRDM9 chimera: human exons 1-9 joined to the final exon (ZF array, 18 zinc fingers) of the chimpanzee reference PRDM9 allele w11a, C-terminally tagged with HA or V5 (human | chimpanzee). Description: co-IP; direct competition: HEK293T transfected with three constructs, Human and Chimp prey with the same epitope tag and Human or Chimp bait with the complementary tag; IP against the bait tag, western against the prey tag; both directions of HA/V5 tagging.

Consider “PRDM9 chimera: human exons 1-9 joined to the final exon (ZF array, 18 zinc fingers) of the chimpanzee reference PRDM9 allele w11a, C-terminally tagged with HA or V5”, for which the fold pull-down efficiency against Human PRDM9 prey on the same Chimp bait is more than 2 fold.

For the origin of these results see PMC5705219.
